# From the RNAGym collection of RNA variant scans (doi:10.1073/pnas.2313332121)
# Variants at the floor of the assay were thinned out.
# B1: TPR 5TU (parent)
# chain: GGAUCUUCUCGAUCUAACAAAAAAGACAAAUCUGCCACAAAGCUUGAGAGCAUCUUCGGAUGCAGAGGCGGCAGCCUUCGGUGGCGCGAUAGCGCCAACGUUCUCAACUAUGACACGCAAAACGCGUGCUCCGUUGAAUGGAGUUUAUCAUG
# Variants of: B1
# Experiment: polymerase ribozyme fitness, log enrichment relative to wild type (log ratio); higher = more active; in vitro selection for triplet polymerase activity
# Summary of the method: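 Each subunit of a heterodimeric triplet polymerase ribozyme was mutagenized into a library by PCR, transcribed, and subjected to one round of in vitro selection, run in triplicate. Libraries were annealed with a biotinylated primer, the partner subunit and triplets, incubated frozen at −7 °C, and extended constructs were gel-excised, captured on streptavidin beads and recovered by RT-PCR. Input and output libraries were sequenced on Illumina, keeping genotypes with ≥10 input reads and ≥1 read per output. Fitness is log base 2 of genotype enrichment divided by wild-type enrichment, from inverse-variance-weighted replicate averages.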
row,Variant,polymerase ribozyme fitness (log ratio)
1,C8G C125U G141C,≤ -4.2
2,G42A U55A C96A,-4.06
3,U146A,-0.305
4,A122G U127A G128A,-4.01
5,G92A U135A U145C,-3.89
6,U33G C85G G117C,≤ -4.2
7,G58U A137C,-3.03
8,G70A G74A U101G U104C A147U,≤ -4.2
9,G80U C105U G136U,-1.49
10,A52G U53A C57A A73U C87G C93A C132U A150C,≤ -4.2
11,U4G A16G C54U G62C G71A U101G C105U A142G U144A,≤ -4.2
12,C63G G133U,-4.14
13,C27G A39U G74A C87G U102G,≤ -4.2
14,C116U A119G,-0.704
15,C18G C43A A52C G71A A91U C95G U146C,≤ -4.2
16,C51A C96A A115G A137U,≤ -4.2
17,G34A G50A G68U G71A C76A C85A C125U,≤ -4.2
18,A40C U53G A66G A119G,≤ -4.2
19,C85A U148A,-3.51
20,C76G G81A,≤ -4.2
21,C27G G94C G136U,≤ -4.2

row,Variant,polymerase ribozyme fitness (log ratio)
1,U55A G100A,≤ -4.2
2,U109G C114G,-3.7
3,U82G C93A,-2.46
4,G70C G88U A97C,≤ -4.2
5,A3U U82C U101A,-0.128
6,U6C A16G A24U C96A C118U,-3.92
7,A12C C32G G84U,≤ -4.2
8,A20U G25C G141A,-4.03
9,A49U A91G,≤ -4.2
10,A16G A22G C27A A49C C57U G59C C85U C118A C129U,≤ -4.2
11,C57G G94A G141C,-0.316
12,G11A A64G G88U U101G C103G U146G,≤ -4.2
13,C14A U90G A137C,≤ -4.2
14,C51G C96A A147C,-3.82
15,A12U U56A A115G,-2.11
16,C85G A122C,-1.98
17,U7G G50C C87G C125U G133A G140A A142U,≤ -4.2
18,U77C C96A,-2.82
19,C27G C35G A49C G70C C79A C95G,≤ -4.2
20,U146C,0.00807
21,A41C A60G C75A A138U G141U U146C U148C,≤ -4.2

row,Variant,polymerase ribozyme fitness (log ratio)
1,C93G U101C,-3.2
2,G11C A37C U55G C93A C99G G124U C149U,≤ -4.2
3,C27U U61G A64U C96U,≤ -4.2
4,A24U U31C G68U G70A G94U C116G U139G,≤ -4.2
5,A16U A19G U31A C38U G42C U44G G59U C96G,≤ -4.2
6,U56G C76U A91G A122U C149G,≤ -4.2
7,A17C A47U G58A G83U G94A G126U,≤ -4.2
8,C99A U101G,-3.16
9,U15G U56G U77C C87G G94A U104G A106U C123U,≤ -4.2
10,G58C C72U U101G,0.371
11,A12U C87G,-4.2
12,C51U G86U,-1.45
13,A19G C87G,≤ -4.2
14,A30U C35U G68U A120U,≤ -4.2
15,C43U C96G,≤ -4.2
16,G50C U77G C93G,≤ -4.2
17,C14G C35U C95U U101A,-3.82
18,G84U A97U,-1.54
19,G92A C116G C123G,-2.92
20,C85U A98U G117A,-0.373
21,A19U C85G A121G,-1.62

row,Variant,polymerase ribozyme fitness (log ratio)
1,A22U G46C C114U,-3.67
2,U45A A52G U82G A115G G136U G141A U151G,≤ -4.2
3,C32U G42A A60C A66G A73G C79A G84A C93U C96G A97U C103G,≤ -4.2
4,C51U C87G C93G C105G A106C A113G,≤ -4.2
5,A60C C85A C125G U144G,-2.67
6,A24U U53A U56G C57U A91U,≤ -4.2
7,U13G A26U C32G U33A C54G A66U C118A U144A,≤ -4.2
8,A16C G25U U61G G88U C93U G136A A147C U148C,≤ -4.2
9,A30U U144A,-3.67
10,U45G C87U,-1.32
11,U33A G92A,≤ -4.2
12,A37G U61C G94U U145C,≤ -4.2
13,A12U G59U C69A C96U,-2.45
14,A12U G25C A47G U56A C93G C108G,≤ -4.2
15,A16C U44A C69G C75G A91U C114G G117C,≤ -4.2
16,C54U C85U C95A,-1.84
17,G83C C125A U144A,-2.36
18,U56A G59A A113C G152U,≤ -4.2
19,A39U C54U C96A,-2.72
20,U44A G83U,-3.94
21,A12C A66G A91U,≤ -4.2
